For one series, the target named is T1, TnsC (ShCAST) (Scytonema hofmannii UTEX B 2349).
T1 chain: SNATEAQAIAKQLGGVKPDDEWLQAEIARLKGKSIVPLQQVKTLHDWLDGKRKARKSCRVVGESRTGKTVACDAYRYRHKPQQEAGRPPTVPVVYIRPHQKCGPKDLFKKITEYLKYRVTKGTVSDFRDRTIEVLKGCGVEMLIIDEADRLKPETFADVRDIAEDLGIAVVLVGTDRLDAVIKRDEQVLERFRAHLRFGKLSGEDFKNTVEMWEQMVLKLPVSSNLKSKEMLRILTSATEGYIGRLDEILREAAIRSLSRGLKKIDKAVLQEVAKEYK
Nature of the series: FP; ATP-dependent at 200 mM NaCl; nucleotide-independent at 50 mM NaCl; 2 mM MgCl2, 37C. Particulars: tags: His6-SUMO-TEV cleaved (SNA N-terminal scar). The protocol: (§1) Fluorescence polarization. Fluorescence polarization was performed as reported earlier (Hoffmann, F. T. et al. Nature 609, 384-393 (2022). A 55 bp dsDNA labeled with a 5′ Fluorescein (6-FAM) tag on one of its strands was used for all fluorescence polarization experiments (Table 3). Recombinantly expressed TnsC (0-15 μM) was titrated with the FAM-labeled dsDNA in 1× binding buffer (20 mM HEPES pH 7.5, 2 mM MgCl₂, 200 mM NaCl, 10 μM ZnCl₂, 1 mM DTT) in the presence of 2 mM ATP or its analogs. The samples were incubated at 37° C. for 30 min in a 384-well plate. The fluorescence gain was adjusted to a sample lacking TnsC while keeping a requested polarization value of 60 mP. The error bar represents the standard deviation measured across two technical replicates. For low salt measurements, the concentration of NaCl was maintained at 50 mM.

A further series concerns the target T2, TniQ + TnsC (ShCAST) (Scytonema hofmannii UTEX B 2349).
T2 chain 1: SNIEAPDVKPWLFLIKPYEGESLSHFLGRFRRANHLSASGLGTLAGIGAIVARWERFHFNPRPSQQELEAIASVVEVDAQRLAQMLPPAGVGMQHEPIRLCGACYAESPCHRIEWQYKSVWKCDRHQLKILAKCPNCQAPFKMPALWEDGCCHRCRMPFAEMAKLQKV
T2 chain 2: T1 chain
Kind of series: FP; TniQ titrated onto DNA preincubated with TnsC, 50 mM NaCl, 37C. The conditions noted are these: tags: His6-SUMO-TEV cleaved. Here is the method: as §1
(§2) For fluorescence polarization measurements for TniQ alone or its interaction with DNA bound to TnsC, TniQ (0-1 μM) was titrated and incubated for 30 min at 37° C. with fluorescently labeled DNA alone or DNA preincubated with […] (30 min at 37° C.). Experiments were conducted in a 1× binding buffer containing 50 mM NaCl in a 25 μL final volume.

Series [1] concerns the target T3, TnsC (Scytonema hofmannii UTEX B 2349, Type V-K CAST, recombinantly purified, after TEV cleavage) (Scytonema hofmannii (UTEX B 2349)).
T3 construct: also called AAA+ ATPase; AAA+ regulator
T3 chain: T1 chain
Nature of the series: fluorescence polarization, TniQ (0-1 µM) titrated onto 55-bp FAM-labeled dsDNA preincubated with TnsC. Here is the method:
as §1, §2
On the technique in general: In fluorescence polarisation assays a small probe gives low polarisation when free and higher when bound to something large.

In series [2] the target is T4, TnsC (Scytonema hofmannii UTEX B 2349, Type V-K CAST, recombinantly purified, after TEV cleavage).
T4 chain: T1 chain

B1: 55-bp FAM dsDNA (dsDNA)
DNA 1: GAGGAGGGCTGTTTTTACAAAATCCGGTAGTAACTTGCTAACCAATTCCTAGGCA
DNA 2: TGCCTAGGAATTGGTTAGCAAGTTACTACCGGATTTTGTAAAAACAGCCCTCCTC
Consider B1, for which the binding result in the series with TnsC (ShCAST) and with TniQ + TnsC (ShCAST) was “binds” in each case.

B2: TniQ (Scytonema hofmannii UTEX B 2349, Type V-K CAST, recombinantly purified, after TEV cleavage) (other)
chain: T2 chain 1
notes: also called ShCAST TniQ; adaptor protein
Consider B2, for which the binding result in series [1] is “binds”.

B3: TnsB (Scytonema hofmannii UTEX B 2349, Type V-K CAST, recombinantly purified, after TEV cleavage) (protein)
chain: SNNSQQNPDLAVHPLAIPMEGLLGESATTLEKNVIATQLSEEAQVKLEVIQSLLEPCDRTTYGQKLREAAEKLNVSLRTVQRLVKNWEQDGLVGLTQTSRADKGKHRIGEFWENFITKTYKEGNKGSKRMTPKQVALRVEAKARELKDSKPPNYKTVLRVLAPILEKQQKAKSIRSPGWRGTTLSVKTREGKDLSVDYSNHVWQCDHTRVDVLLVDQHGEILSRPWLTTVIDTYSRCIMGINLGFDAPSSGVVALALRHAILPKRYGSEYKLHCEWGTYGKPEHFYTDGGKDFRSNHLSQIGAQLGFVCHLRDRPSEGGVVERPFKTLNDQLFSTLPGYTGSNVQERPEDAEKDARLTLRELEQLLVRYIVDRYNQSIDARMGDQTRFERWEAGLPTVPVPIPERDLDICLMKQSRRTVQRGGCLQFQNLMYRGEYLAGYAGETVNLRFDPRDITTILVYRQENNQEVFLTRAHAQGLETEQLALDEAEAASRRLRTAGKTISNQSLLQEVVDRDALVATKKSRKERQKLEQTVLRSAAVDESNRESLPSQIVEPDEVESTETVHSQYEDIEVWDYEQLREEYGF
Turning to B3, in series [2], the “ATP hydrolysis activity of TnsC (Malachite Green assay)” value was “TnsB stimulates the ATP hydrolysis activity of TnsC in a DNA-dependent reaction”; the “phosphate liberated (Malachite Green Phosphate Assay; TnsC 10 µM, TnsB 20 µM, dsDNA 10 µM, 1 mM ATP, 120 min at 37° C.)” value is “the sample containing TnsC, TnsB and dsDNA which liberated 174 µM of phosphate”.

The values are drawn from US20260139278A1, “SPECIFICITY OF CRISPR-TRANSPOSON SYSTEMS IN DNA MODIFICATION” (The Trustees of Columbia University in the City of New York, published 2026).
